{
  "source": "patent US20090104657A1",
  "about": "(BASF AKTIENGESELLSCHAFT, published 2009)",
  "proteins": {"B1": {"name": "protease according to the invention from Burkholderia glumae PG1, expressed from pETpro in E. coli BL21DE3 as a fusion protein with C-terminal 6xHis-tag (enzyme)", "chain": "MQQRGGSMSKKIAVLAVDEFEDSELVEPLRALRKAGAEVDVISQQAGEVKGFRHADKGEAVKVDRTFDEVREGEFDALLLPGGLLRGDNRMLPAAREFVTAGKPVFAICHGGWLLGSSGVINGRKLTAWPSLQDDVKNAGGEFYDQEVVRDKDQLITSRKPDDLPAFNREALRLLGAGA", "notes": "also called putative protease; ThiJ/PfpI protein; not shown: C-terminal 6xHis-tag from vector pET22b"}},
  "target": "the molecule itself",
  "experiment": "native polyacrylamide gel electrophoresis; self-association of the subunit",
  "data": [
    {"protein": "B1", "values": [
      {"measurement": "binding result", "value": "binds"}
    ]}
  ]
}
